We go through eleven molecules from patent US20240270821A1, “GIP/GLP1/GCG TRI-RECEPTOR AGONISTS AND USES THEREOF” (priority 2023, published 2024).

Substitutions are numbered along the chain they refer to.

B1: Example 59 (peptide)
chain: YXQGTFTSDFSXXLDKKAQXAFIEYLLEGGPSSGEPPPSEG
modifications: synthetic construct; SITE 2: note = 2-Aminoisobutyric Acid; SITE 12: note = L-ornithine; SITE 13: note = alpha-methyl-leucine; SITE 17: note = Lysine is chemically modified through conjugation of the epsilon-amino group of the Lysine side chain with (2-[2-(2-Amino-ethoxy)-ethoxy]-acetyl)-(gamma-Glu)
B2: Example 60 (peptide)
chain: B1 chain with E28A, E35A
modifications: synthetic construct; SITE 2: note = 2-Aminoisobutyric Acid; SITE 12: note = L-ornithine; SITE 13: note = alpha-methyl-leucine; SITE 17: note = Lysine is chemically modified through conjugation of the epsilon-amino group of the Lysine side chain with (2-[2-(2-Amino-ethoxy)-ethoxy]-acetyl)-(gamma-Glu)
B3: Example 616 (peptide)
chain: YXQGTXTSDXSIXLDXKAQXEFIEXLIEGGPSSGAPPPSGE
modifications: non-natural residues; acylated Lys; C-terminal amide; synthetic construct; SITE 2: note = 2-Aminoisobutyric Acid; SITE 6: note = alpha-methyl-2-fluoro-L-phenylalanine; SITE 10: note = 3-(4-Pyridyl)-L-alanine; SITE 13: note = alpha-methyl-leucine; SITE 16: note = L-ornithine; SITE 17: note = Lysine is chemically modified through conjugation of the epsil
B4: Example 618 (peptide)
chain: YXQGTXTSDXSILLDKKAQXAFIEYLEEGGPSSGAPPPSGSGE
modifications: non-natural residues, C18 diacid acylation, C-terminal amide; synthetic construct; SITE 2: note = 2-Aminoisobutyric Acid; SITE 6: note = alpha-methyl-2-fluoro-L-phenylalanine; SITE 10: note = 3-(4-Pyridyl)-L-alanine; SITE 17: note = Lysine is chemically modified through conjugation of the epsilon-amino group of the Lysine side chain with (gamma-Glu)2-CO-(CH2)1
B5: Example 632 (peptide)
chain: B4 chain with L13X, E27S, A35E, G42E
modifications: Aib, αMeF(2F), 4Pal, αMeL, acylated K, C-terminal amide; synthetic construct; SITE 2: note = 2-Aminoisobutyric Acid; SITE 6: note = alpha-methyl-2-fluoro-L-phenylalanine; SITE 10: note = 3-(4-Pyridyl)-L-alanine; SITE 13: note = alpha-methyl-leucine; SITE 17: note = Lysine is chemically modified through conjugation of the epsilon-amino group of the Lysine
B6: Example 635 (peptide)
chain: B4 chain with L13X, A21X, A35E, G42E
modifications: non-natural residues; C18 diacid-(γ-Glu)2 acyl on Lys; C-terminal amide; synthetic construct; SITE 2: note = 2-Aminoisobutyric Acid; SITE 6: note = alpha-methyl-2-fluoro-L-phenylalanine; SITE 10: note = 3-(4-Pyridyl)-L-alanine; SITE 13: note = alpha-methyl-leucine; SITE 17: note = Lysine is chemically modified through conjugation of the epsilon-amino group of the Lysine
B7: Example 628 (peptide)
chain: B4 chain with L13X, A35E, S39E, S41T
modifications: non-natural residues; lipidated Lys; C-terminal amide; synthetic construct; SITE 2: note = 2-Aminoisobutyric Acid; SITE 6: note = alpha-methyl-2-fluoro-L-phenylalanine; SITE 10: note = 3-(4-Pyridyl)-L-alanine; SITE 13: note = alpha-methyl-leucine; SITE 17: note = Lysine is chemically modified through conjugation of the epsilon-amino group of the Lysine
B8: Example 620 (peptide)
chain: B4 chain with S41A
modifications: Aib, αMeF(2F), 4Pal; acylated K; C-terminal amide; synthetic construct; SITE 2: note = 2-Aminoisobutyric Acid; SITE 6: note = alpha-methyl-2-fluoro-L-phenylalanine; SITE 10: note = 3-(4-Pyridyl)-L-alanine; SITE 17: note = Lysine is chemically modified through conjugation of the epsilon-amino group of the Lysine side chain with (gamma-Glu)2-CO-(CH2)1
B9: Example 619 (peptide)
chain: B4 chain with S41G
modifications: non-natural residues; Lys acylated C18 diacid; C-terminal amide; synthetic construct; SITE 2: note = 2-Aminoisobutyric Acid; SITE 6: note = alpha-methyl-2-fluoro-L-phenylalanine; SITE 10: note = 3-(4-Pyridyl)-L-alanine; SITE 17: note = Lysine is chemically modified through conjugation of the epsilon-amino group of the Lysine side chain with (gamma-Glu)2-CO-(CH2)1
B10: Example 631 (peptide)
chain: B4 chain with L13X, E27A, A35E, G42E
modifications: non-natural residues; acylated Lys; C-terminal amide; synthetic construct; SITE 2: note = 2-Aminoisobutyric Acid; SITE 6: note = alpha-methyl-2-fluoro-L-phenylalanine; SITE 10: note = 3-(4-Pyridyl)-L-alanine; SITE 13: note = alpha-methyl-leucine; SITE 17: note = Lysine is chemically modified through conjugation of the epsilon-amino group of the Lysine
B11: Example 633 (peptide)
chain: B4 chain with L13X, E27T, A35E, G42E
modifications: non-natural residues, C18 diacid acylation, C-terminal amide; synthetic construct; SITE 2: note = 2-Aminoisobutyric Acid; SITE 6: note = alpha-methyl-2-fluoro-L-phenylalanine; SITE 10: note = 3-(4-Pyridyl)-L-alanine; SITE 13: note = alpha-methyl-leucine; SITE 17: note = Lysine is chemically modified through conjugation of the epsilon-amino group of the Lysine

The target in one experiment is human glucagon receptor (human) (UniProt P47871). Description: cell-based or functional assay.
Chain of human glucagon receptor (human) (P47871 26-477): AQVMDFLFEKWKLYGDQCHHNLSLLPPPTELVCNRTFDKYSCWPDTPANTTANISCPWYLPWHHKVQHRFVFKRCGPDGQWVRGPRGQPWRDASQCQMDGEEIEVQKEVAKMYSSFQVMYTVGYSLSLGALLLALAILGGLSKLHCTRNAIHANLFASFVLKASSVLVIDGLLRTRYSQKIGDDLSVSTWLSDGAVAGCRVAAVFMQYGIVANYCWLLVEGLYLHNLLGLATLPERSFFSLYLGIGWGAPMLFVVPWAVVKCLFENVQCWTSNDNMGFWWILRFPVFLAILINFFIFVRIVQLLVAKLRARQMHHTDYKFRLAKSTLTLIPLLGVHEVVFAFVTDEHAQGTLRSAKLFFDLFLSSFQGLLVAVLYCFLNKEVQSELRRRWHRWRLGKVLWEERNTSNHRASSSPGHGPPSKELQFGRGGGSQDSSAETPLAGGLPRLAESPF
Regarding B1, the Relative cAMP EC50 was found to be 6.57 nM and the cAMP Rel EC50, nM (in the presence of 1% HSA) stood at 2160 nM.

On to B2, for which the Relative cAMP EC50 is 8.96 nM and the cAMP Rel EC50, nM (in the presence of 1% HSA) is 1210 nM.

With B3, the Relative cAMP EC50 was found to be 6.58 nM and the cAMP Rel EC50 (in the presence of 1% HSA) turned out to be 734 nM.

B4: the Relative cAMP EC50 was 5.57 nM and the cAMP Rel EC50 (in the presence of 1% HSA) was found to be 691 nM.

Take B5: the Relative cAMP EC50 was 13.5 nM and the cAMP Rel EC50 (in the presence of 1% HSA) amounted to 1600 nM.

Consider B6, for which the Relative cAMP EC50 came to 7.09 nM and the cAMP Rel EC50 (in the presence of 1% HSA) was determined as 753 nM.

As to B7, the Relative cAMP EC50 is 7.47 nM and the cAMP Rel EC50 (in the presence of 1% HSA) was 651 nM.

As for B8, the Relative cAMP EC50 came out at 8.26 nM and the cAMP Rel EC50 (in the presence of 1% HSA) stood at 665 nM.

With B9, the Relative cAMP EC50 came out at 6.34 nM and the cAMP Rel EC50 (in the presence of 1% HSA) amounted to 819 nM.

Regarding B10, the Relative cAMP EC50 was 16.8 nM and the cAMP Rel EC50 (in the presence of 1% HSA) amounted to 1250 nM.

Consider B11, for which the Relative cAMP EC50 worked out at 10.2 nM and the cAMP Rel EC50 (in the presence of 1% HSA) came out at 1500 nM.

The target in the next experiment is T1, human GIP receptor (human) (UniProt P48546).
T1 sequence (looked up): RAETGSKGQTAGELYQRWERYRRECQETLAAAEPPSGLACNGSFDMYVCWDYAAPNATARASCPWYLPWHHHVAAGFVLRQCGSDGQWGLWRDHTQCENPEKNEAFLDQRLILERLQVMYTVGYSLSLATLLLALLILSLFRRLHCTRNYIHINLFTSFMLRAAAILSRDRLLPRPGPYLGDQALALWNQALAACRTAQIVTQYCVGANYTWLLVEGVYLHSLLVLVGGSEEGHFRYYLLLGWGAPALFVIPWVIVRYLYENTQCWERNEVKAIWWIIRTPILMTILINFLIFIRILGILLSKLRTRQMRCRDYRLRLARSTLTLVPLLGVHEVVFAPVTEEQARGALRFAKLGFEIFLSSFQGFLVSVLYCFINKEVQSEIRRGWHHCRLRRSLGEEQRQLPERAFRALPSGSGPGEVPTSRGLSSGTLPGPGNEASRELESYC
Description: cell-based or functional assay.
For the molecule B1, the Relative cAMP EC50 was 0.54 nM and the cAMP Rel EC50, nM (in the presence of 1% HSA) was determined as 166 nM.

Consider B2, for which the Relative cAMP EC50 amounted to 0.135 nM and the cAMP Rel EC50, nM (in the presence of 1% HSA) was determined as 33 nM.

For B3, the Relative cAMP EC50 turned out to be 0.00727 nM and the cAMP Rel EC50 (in the presence of 1% HSA) came to 0.467 nM.

In the case of B4, the Relative cAMP EC50 is 0.0418 nM and the cAMP Rel EC50 (in the presence of 1% HSA) is 4.63 nM.

Consider B5, for which the Relative cAMP EC50 stood at 0.068 nM and the cAMP Rel EC50 (in the presence of 1% HSA) stood at 5.48 nM.

B6: the Relative cAMP EC50 was 0.0405 nM and the cAMP Rel EC50 (in the presence of 1% HSA) worked out at 2.7 nM.

For B7, the Relative cAMP EC50 amounted to 0.0278 nM and the cAMP Rel EC50 (in the presence of 1% HSA) was found to be 1.87 nM.

With B8, the Relative cAMP EC50 amounted to 0.0706 nM and the cAMP Rel EC50 (in the presence of 1% HSA) came out at 5.96 nM.

Turning to B9, the Relative cAMP EC50 was 0.0685 nM and the cAMP Rel EC50 (in the presence of 1% HSA) is 6.78 nM.

As for B10, the Relative cAMP EC50 turned out to be 0.0375 nM and the cAMP Rel EC50 (in the presence of 1% HSA) came out at 3.92 nM.

On to B11, for which the Relative cAMP EC50 amounted to 0.0186 nM and the cAMP Rel EC50 (in the presence of 1% HSA) came out at 1.63 nM.

The target of a further experiment is hGLP-1R (Homo sapiens, UniProt P43220). Description: cell-based or functional assay.
Chain of hGLP-1R (P43220 24-463): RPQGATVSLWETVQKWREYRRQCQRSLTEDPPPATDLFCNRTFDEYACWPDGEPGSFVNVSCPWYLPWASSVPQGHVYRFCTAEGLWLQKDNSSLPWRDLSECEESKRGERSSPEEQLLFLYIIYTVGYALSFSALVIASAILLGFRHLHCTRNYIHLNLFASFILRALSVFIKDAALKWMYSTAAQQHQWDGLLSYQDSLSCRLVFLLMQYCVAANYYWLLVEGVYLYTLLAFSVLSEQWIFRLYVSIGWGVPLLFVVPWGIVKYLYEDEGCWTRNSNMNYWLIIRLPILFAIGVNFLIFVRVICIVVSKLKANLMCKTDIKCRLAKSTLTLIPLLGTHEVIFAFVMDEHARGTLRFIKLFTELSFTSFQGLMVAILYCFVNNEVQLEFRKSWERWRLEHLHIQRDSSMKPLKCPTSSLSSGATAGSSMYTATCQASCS
For the molecule B1, the Relative cAMP EC50 came out at 4.8 nM and the cAMP Rel EC50, nM (in the presence of 1% HSA) amounted to 1370 nM.

For B2, the Relative cAMP EC50 amounted to 1.93 nM and the cAMP Rel EC50, nM (in the presence of 1% HSA) was determined as 409 nM.

Consider B3, for which the Relative cAMP EC50 came to 0.29 nM and the cAMP Rel EC50 (in the presence of 1% HSA) stood at 28.9 nM.

As for B4, the Relative cAMP EC50 was 1.53 nM and the cAMP Rel EC50 (in the presence of 1% HSA) is 88.9 nM.

As for B5, the Relative cAMP EC50 came out at 0.951 nM and the cAMP Rel EC50 (in the presence of 1% HSA) worked out at 88.2 nM.

Take B6: the Relative cAMP EC50 turned out to be 0.625 nM and the cAMP Rel EC50 (in the presence of 1% HSA) was 53.9 nM.

Take B7: the Relative cAMP EC50 was found to be 1.11 nM and the cAMP Rel EC50 (in the presence of 1% HSA) stood at 79.8 nM.

B8: the Relative cAMP EC50 came out at 0.981 nM and the cAMP Rel EC50 (in the presence of 1% HSA) is 90.7 nM.

For B9, the Relative cAMP EC50 was determined as 0.992 nM and the cAMP Rel EC50 (in the presence of 1% HSA) was found to be 94 nM.

Take B10: the Relative cAMP EC50 stood at 0.658 nM and the cAMP Rel EC50 (in the presence of 1% HSA) is 55 nM.

Take B11: the Relative cAMP EC50 was 0.421 nM and the cAMP Rel EC50 (in the presence of 1% HSA) is 41.2 nM.
